Legend:
Mcm4 = molecular target: T1, Mcm4 (Saccharomyces cerevisiae, UniProt P30665 1-933); test: cryo-EM structure; OC1M^Mcm5RA: 30 nM MH-ARS1-MH DNA, 60 nM ORC, 90 nM Cdc6, 60 nM MCM-Cdt1 (Mcm5 R549A), 2 mM ATP; same buffer; 30 °C, 30 min; conformer 1 at 3.7 Å, conformer 2 at 3.4 Å (Orc1 ATPase domain seen only in conformer 1); conditions: both partners purified
T1 construct: Mcm4, S. cerevisiae; Subunit of m4 and m7, written alone for the contacts seen in the structures; also called Mcm4 subunit of MCM; source: S. cerevisiae strains yGC216 and yGC226, purified as a subunit of MCM-Cdt1
T1 sequence: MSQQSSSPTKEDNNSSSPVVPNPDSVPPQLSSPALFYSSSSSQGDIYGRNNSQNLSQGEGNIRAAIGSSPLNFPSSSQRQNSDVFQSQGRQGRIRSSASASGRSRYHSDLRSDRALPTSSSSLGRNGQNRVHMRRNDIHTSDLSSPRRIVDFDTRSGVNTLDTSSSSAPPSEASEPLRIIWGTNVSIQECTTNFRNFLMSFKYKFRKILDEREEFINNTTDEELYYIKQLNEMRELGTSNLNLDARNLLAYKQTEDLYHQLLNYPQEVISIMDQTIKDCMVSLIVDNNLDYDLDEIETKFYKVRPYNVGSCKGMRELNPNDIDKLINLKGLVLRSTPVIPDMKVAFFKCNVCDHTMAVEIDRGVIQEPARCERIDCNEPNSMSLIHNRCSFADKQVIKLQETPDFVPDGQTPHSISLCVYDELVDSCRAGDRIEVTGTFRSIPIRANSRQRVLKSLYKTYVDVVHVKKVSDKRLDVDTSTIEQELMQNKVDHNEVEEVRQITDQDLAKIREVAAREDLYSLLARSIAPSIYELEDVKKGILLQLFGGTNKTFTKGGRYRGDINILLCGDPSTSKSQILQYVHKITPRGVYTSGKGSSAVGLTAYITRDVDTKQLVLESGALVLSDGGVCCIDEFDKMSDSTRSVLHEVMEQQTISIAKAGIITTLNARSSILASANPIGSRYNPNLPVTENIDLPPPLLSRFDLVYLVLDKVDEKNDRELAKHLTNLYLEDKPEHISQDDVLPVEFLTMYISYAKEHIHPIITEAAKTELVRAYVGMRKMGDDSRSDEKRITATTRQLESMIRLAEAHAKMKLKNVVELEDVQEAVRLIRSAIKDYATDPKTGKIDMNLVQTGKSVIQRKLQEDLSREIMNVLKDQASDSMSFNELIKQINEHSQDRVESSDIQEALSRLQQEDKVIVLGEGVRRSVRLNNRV

Orc1 = molecular target: T2, Orc1 (Saccharomyces cerevisiae, UniProt P54784 1-914); test: cryo-EM structure; OCCM^Mcm2RA: 30 nM MH-ARS1-MH DNA, 60 nM ORC, 90 nM Cdc6, 60 nM MCM-Cdt1 (Mcm2 R676A), 3 mM ATP; 25 mM HEPES pH 7.6, 100 mM potassium chloride, 10 mM magnesium acetate, 1 mM DTT; 30 °C, 30 min; 3.3 Å consensus, 3.2 Å local refinements; conditions: both partners purified
T2 construct: Orc1, S. cerevisiae; Subunit of m1, written alone for the contacts seen in the structures; also called Orc1 subunit of ORC; source: S. cerevisiae strain ySD-ORC, purified as a subunit of ORC
T2 sequence: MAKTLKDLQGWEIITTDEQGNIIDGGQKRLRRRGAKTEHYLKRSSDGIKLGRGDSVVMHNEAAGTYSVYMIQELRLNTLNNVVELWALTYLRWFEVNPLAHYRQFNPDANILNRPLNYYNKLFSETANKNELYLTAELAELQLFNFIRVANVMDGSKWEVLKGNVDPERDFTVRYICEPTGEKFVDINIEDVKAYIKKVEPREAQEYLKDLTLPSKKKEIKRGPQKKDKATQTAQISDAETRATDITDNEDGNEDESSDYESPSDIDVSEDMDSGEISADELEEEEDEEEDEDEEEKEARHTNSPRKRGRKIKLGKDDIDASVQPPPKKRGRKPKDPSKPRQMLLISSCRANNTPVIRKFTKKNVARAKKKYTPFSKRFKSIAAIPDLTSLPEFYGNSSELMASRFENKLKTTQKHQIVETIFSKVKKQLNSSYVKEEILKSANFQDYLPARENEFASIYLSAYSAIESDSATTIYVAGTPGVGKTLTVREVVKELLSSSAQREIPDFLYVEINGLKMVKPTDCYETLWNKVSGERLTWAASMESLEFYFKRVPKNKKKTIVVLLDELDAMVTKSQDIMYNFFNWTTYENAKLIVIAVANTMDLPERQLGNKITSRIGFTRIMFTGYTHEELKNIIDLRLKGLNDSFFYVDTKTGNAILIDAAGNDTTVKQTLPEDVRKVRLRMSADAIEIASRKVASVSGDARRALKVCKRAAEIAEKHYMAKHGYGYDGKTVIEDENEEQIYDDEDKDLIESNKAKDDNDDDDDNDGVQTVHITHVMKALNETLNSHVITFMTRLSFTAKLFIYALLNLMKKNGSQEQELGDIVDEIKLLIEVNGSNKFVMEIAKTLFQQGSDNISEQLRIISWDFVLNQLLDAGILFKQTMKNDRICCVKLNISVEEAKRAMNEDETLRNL

- binding result (Mcm4): binds
- binding result (Orc1): binds
B1: Mcm7 (natural protein, Saccharomyces cerevisiae)
chain: MSAALPSIQLPVDYNNLFNEITDFLVTFKQDTLSSDATRNENEDENLDAENIEQHLLEKGPKYMAMLQKVANRELNSVIIDLDDILQYQNEKFLQGTQADDLVSAIQQNANHFTELFCRAIDNNMPLPTKEIDYKDDVLDVILNQRRLRNERMLSDRTNEIRSENLMDTTMDPPSSMNDALREVVEDETELFPPNLTRRYFLYFKPLSQNCARRYRKKAISSKPLSVRQIKGDFLGQLITVRGIITRVSDVKPAVEVIAYTCDQCGYEVFQEVNSRTFTPLSECTSEECSQNQTKGQLFMSTRASKFSAFQECKIQELSQQVPVGHIPRSLNIHVNGTLVRSLSPGDIVDVTGIFLPAPYTGFKALKAGLLTETYLEAQFVRQHKKKFASFSLTSDVEERVMELITSGDVYNRLAKSIAPEIYGNLDVKKALLLLLVGGVDKRVGDGMKIRGDINVCLMGDPGVAKSQLLKAICKISPRGVYTTGKGSSGVGLTAAVMKDPVTDEMILEGGALVLADNGICCIDEFDKMDESDRTAIHEVMEQQTISISKAGINTTLNARTSILAAANPLYGRYNPRLSPLDNINLPAALLSRFDILFLMLDIPSRDDDEKLAEHVTYVHMHNKQPDLDFTPVEPSKMREYIAYAKTKRPVMSEAVNDYVVQAYIRLRQDSKREMDSKFSFGQATPRTLLGIIRLSQALAKLRLADMVDIDDVEEALRLVRVSKESLYQETNKSKEDESPTTKIFTIIKKMLQETGKNTLSYENIVKTVRLRGFTMLQLSNCIQEYSYLNVWHLINEGNTLKFVDDGTMDTDQEDSLVSTPKLAPQTTASANVSAQDSDIDLQDA
notes: Mcm7, S. cerevisiae; Subunit of m4 and m7, written alone for the contacts seen in the structures; also called Mcm7 subunit of MCM; source: S. cerevisiae strains yGC216 and yGC226, purified as a subunit of MCM-Cdt1
